Results taken from IntAct's records for PubMed 22975076.

Target: tif1b_human TRIM28 (UniProt Q13263)
Sequence (Q13263 whole entry): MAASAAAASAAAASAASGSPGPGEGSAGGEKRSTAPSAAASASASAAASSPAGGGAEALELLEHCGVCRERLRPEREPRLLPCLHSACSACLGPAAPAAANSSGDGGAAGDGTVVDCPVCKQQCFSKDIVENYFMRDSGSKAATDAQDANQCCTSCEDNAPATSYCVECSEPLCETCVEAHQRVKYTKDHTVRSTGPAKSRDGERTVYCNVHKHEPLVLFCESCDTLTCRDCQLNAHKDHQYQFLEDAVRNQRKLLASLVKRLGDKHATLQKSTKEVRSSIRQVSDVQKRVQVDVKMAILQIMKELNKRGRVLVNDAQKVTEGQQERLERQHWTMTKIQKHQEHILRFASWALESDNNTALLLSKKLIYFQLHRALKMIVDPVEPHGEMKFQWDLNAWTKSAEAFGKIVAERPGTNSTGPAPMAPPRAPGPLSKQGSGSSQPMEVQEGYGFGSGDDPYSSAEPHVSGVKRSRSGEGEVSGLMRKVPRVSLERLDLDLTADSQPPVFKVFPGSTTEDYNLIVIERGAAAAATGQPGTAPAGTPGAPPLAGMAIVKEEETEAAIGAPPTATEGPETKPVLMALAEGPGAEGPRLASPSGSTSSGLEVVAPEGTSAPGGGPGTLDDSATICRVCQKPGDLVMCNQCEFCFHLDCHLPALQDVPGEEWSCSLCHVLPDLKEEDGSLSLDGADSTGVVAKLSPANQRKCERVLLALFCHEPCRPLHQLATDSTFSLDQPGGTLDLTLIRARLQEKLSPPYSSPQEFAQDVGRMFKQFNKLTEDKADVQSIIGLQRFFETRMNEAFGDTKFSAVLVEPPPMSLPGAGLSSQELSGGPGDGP

Substance | effect of a mutation on the interaction
Zinc finger protein 350 (Homo sapiens), Q9GZX5 V13A | decreasing interaction
Zinc finger protein 350 (Homo sapiens), Q9GZX5 D12A | decreasing interaction
